Source: article PMC7642778

Columns and labels:
[1] = molecular target: monothiol glutaredoxin-1 from Clostridium oremlandii (C16S) (Clostridium oremlandii (strain OhILAs)); test: crystal structure; m-cGrx1–cMsrA complex (β3-swap), formed by incubation with 5 mM methionine sulfoxide at 4°C for 2 h and purified on Superdex 75; crystals from 0.1 M sodium phosphate/citric acid pH 4.2, 0.4 M potassium phosphate (dibasic)/1.6 M sodium phosphate (monobasic), 20°C
[2] = molecular target: monothiol glutaredoxin-1 from Clostridium oremlandii (C16S) (Clostridium oremlandii (strain OhILAs)); test: crystal structure; m-cGrx1 alone (β1-swap), formed in the presence of hydrogen peroxide; crystals from 0.1 M HEPES pH 7.5, 20% PEG 400, 8% PEG 8000, 20°C
[3] = molecular target: dithiol glutaredoxin-1 from Clostridium oremlandii (strain OhILAs) (Clostridium oremlandii (strain OhILAs)); test: crystal structure; d-cGrx1 alone; crystals from 0.1 M sodium phosphate/citric acid pH 4.2, 0.2 M lithium sulfate, 20% PEG 1000, 20°C

Question: With “methionine sulfoxide reductase A from Clostridium oremlandii (enzyme)” as the substance, how does the stoichiometry N (cGrx1 per cMsrA (four cGrx1 : two cMsrA)) [1] read?
Answer: 2

Question: For “monothiol glutaredoxin-1 from Clostridium oremlandii (C16S) (enzyme)”, which stoichiometry N [2] is on record?
Answer: 4

Question: And the stoichiometry N [1]?
Answer: 4

Question: With “dithiol glutaredoxin-1 from Clostridium oremlandii (strain OhILAs) (enzyme)” as the substance, how does the stoichiometry N [3] read?
Answer: 2
